Data set [1] in a line: western blot of total lysate, COS-7. As to conditions: glycan lost; control: WT Vstm5.
Data set [2] can be described thus: immunofluorescence with ER marker PDI, COS-7. As to conditions: glycan lost.
Data set [3] in a line: surface biotinylation, pull-down, western, COS-7. The note with it: glycan lost; control: WT Vstm5.

B1: V-set and transmembrane domain-containing protein 5 (Vstm5): N43,87,101,108A (protein)
parent chain: MRPLRCGERTQGIPLGLLAFWVTAARCLQSQGVSLYIPQSAINATVQQDILLSVDYICHGVPTIEWKYTPNWGVQRIVEWKPGTPANVSQSHRDRVCTFDNGSIQLFNVSVKDSGYYIVTVTEHPGSSQSGTILLRVSEIRYEDLHFVAVFFALLAAVAVVLISLMWVCNQCAYKFQRKRRYKLKESTTEEIEMKEVEC
With B1, the expression_or_secretion result in data set [1] is recorded as “no change”. In addition, the localisation_or_trafficking result in data set [2] (control: WT Vstm5) was “changes”. Further, the “localisation_or_trafficking, fold_change” value in data set [3] is on record as “decreases”.

B2: V-set and transmembrane domain-containing protein 5 (Vstm5): N87,101,108A (protein)
parent chain: MRPLRCGERTQGIPLGLLAFWVTAARCLQSQGVSLYIPQSAINATVQQDILLSVDYICHGVPTIEWKYTPNWGVQRIVEWKPGTPANVSQSHRDRVCTFDNGSIQLFNVSVKDSGYYIVTVTEHPGSSQSGTILLRVSEIRYEDLHFVAVFFALLAAVAVVLISLMWVCNQCAYKFQRKRRYKLKESTTEEIEMKEVEC
B2: the expression_or_secretion entry in data set [1] is listed as “no change”. Also, the “localisation_or_trafficking, fold_change” value in data set [3] is listed as “decreases”.

B3: V-set and transmembrane domain-containing protein 5 (Vstm5): tunicamycin (protein)
parent chain: MRPLRCGERTQGIPLGLLAFWVTAARCLQSQGVSLYIPQSAINATVQQDILLSVDYICHGVPTIEWKYTPNWGVQRIVEWKPGTPANVSQSHRDRVCTFDNGSIQLFNVSVKDSGYYIVTVTEHPGSSQSGTILLRVSEIRYEDLHFVAVFFALLAAVAVVLISLMWVCNQCAYKFQRKRRYKLKESTTEEIEMKEVEC
Take B3: in data set [2] (control: DMSO-treated), the localisation_or_trafficking entry was “changes”.

B4: V-set and transmembrane domain-containing protein 5 (Vstm5): N43,87A (protein)
parent chain: MRPLRCGERTQGIPLGLLAFWVTAARCLQSQGVSLYIPQSAINATVQQDILLSVDYICHGVPTIEWKYTPNWGVQRIVEWKPGTPANVSQSHRDRVCTFDNGSIQLFNVSVKDSGYYIVTVTEHPGSSQSGTILLRVSEIRYEDLHFVAVFFALLAAVAVVLISLMWVCNQCAYKFQRKRRYKLKESTTEEIEMKEVEC
Take B4: in data set [1], the expression_or_secretion entry is “no change”. Moreover, the “localisation_or_trafficking, fold_change” value in data set [3] is on record as “decreases”.

B5: V-set and transmembrane domain-containing protein 5 (Vstm5): N101,108A (protein)
parent chain: MRPLRCGERTQGIPLGLLAFWVTAARCLQSQGVSLYIPQSAINATVQQDILLSVDYICHGVPTIEWKYTPNWGVQRIVEWKPGTPANVSQSHRDRVCTFDNGSIQLFNVSVKDSGYYIVTVTEHPGSSQSGTILLRVSEIRYEDLHFVAVFFALLAAVAVVLISLMWVCNQCAYKFQRKRRYKLKESTTEEIEMKEVEC
As to B5, the expression_or_secretion entry in data set [1] is “no change”. Further, the “localisation_or_trafficking, fold_change” value in data set [3] was “no change”.

B6: V-set and transmembrane domain-containing protein 5 (Vstm5): N108A (protein)
parent chain: MRPLRCGERTQGIPLGLLAFWVTAARCLQSQGVSLYIPQSAINATVQQDILLSVDYICHGVPTIEWKYTPNWGVQRIVEWKPGTPANVSQSHRDRVCTFDNGSIQLFNVSVKDSGYYIVTVTEHPGSSQSGTILLRVSEIRYEDLHFVAVFFALLAAVAVVLISLMWVCNQCAYKFQRKRRYKLKESTTEEIEMKEVEC
As for B6, the expression_or_secretion entry in data set [1] is reported as “no change”. Besides, the “localisation_or_trafficking, fold_change” value in data set [3] is on record as “increases”.

B7: V-set and transmembrane domain-containing protein 5 (Vstm5): N101A (protein)
parent chain: MRPLRCGERTQGIPLGLLAFWVTAARCLQSQGVSLYIPQSAINATVQQDILLSVDYICHGVPTIEWKYTPNWGVQRIVEWKPGTPANVSQSHRDRVCTFDNGSIQLFNVSVKDSGYYIVTVTEHPGSSQSGTILLRVSEIRYEDLHFVAVFFALLAAVAVVLISLMWVCNQCAYKFQRKRRYKLKESTTEEIEMKEVEC
Regarding B7, the expression_or_secretion entry in data set [1] is given as “no change”. Further, the “localisation_or_trafficking, fold_change” value in data set [3] is on record as “decreases”.

B8: V-set and transmembrane domain-containing protein 5 (Vstm5): N43A (protein)
parent chain: MRPLRCGERTQGIPLGLLAFWVTAARCLQSQGVSLYIPQSAINATVQQDILLSVDYICHGVPTIEWKYTPNWGVQRIVEWKPGTPANVSQSHRDRVCTFDNGSIQLFNVSVKDSGYYIVTVTEHPGSSQSGTILLRVSEIRYEDLHFVAVFFALLAAVAVVLISLMWVCNQCAYKFQRKRRYKLKESTTEEIEMKEVEC
On to B8, for which the expression_or_secretion result in data set [1] is “no change”. In addition, the “localisation_or_trafficking, fold_change” value in data set [3] is recorded as “decreases”.

B9: V-set and transmembrane domain-containing protein 5 (Vstm5): N87A (protein)
parent chain: MRPLRCGERTQGIPLGLLAFWVTAARCLQSQGVSLYIPQSAINATVQQDILLSVDYICHGVPTIEWKYTPNWGVQRIVEWKPGTPANVSQSHRDRVCTFDNGSIQLFNVSVKDSGYYIVTVTEHPGSSQSGTILLRVSEIRYEDLHFVAVFFALLAAVAVVLISLMWVCNQCAYKFQRKRRYKLKESTTEEIEMKEVEC
Regarding B9, the expression_or_secretion entry in data set [1] is given as “no change”. The “localisation_or_trafficking, fold_change” value in data set [3] is given as “increases”.

For the origin of these results see publication PMC5528877.
